From publication PMC6070508
pKd: −log10 of the molar value.

Key:
[1] = target: 2:1 8D6 Fab/IgE-Fc complex; assay: SPR; IgE-Fc captured on an 8D6 Fab surface, then saturated with 100 nM 8D6 Fab (2:1 8D6 Fab/IgE-Fc complex); derCD23 injected at 10 to 0.156 uM; HBS-P with 5 mM CaCl2, 25 °C
[2] = target: 1:1 8D6 Fab/IgE-Fc complex; assay: SPR; IgE-Fc captured on an 8D6 Fab surface (1:1 8D6 Fab/IgE-Fc complex); derCD23 injected at 10 to 0.156 uM; HBS-P with 5 mM CaCl2, 25 °C
Chain of 1:1 8D6 Fab/IgE-Fc complex (heavy, as listed by the source, chain 1 of 2): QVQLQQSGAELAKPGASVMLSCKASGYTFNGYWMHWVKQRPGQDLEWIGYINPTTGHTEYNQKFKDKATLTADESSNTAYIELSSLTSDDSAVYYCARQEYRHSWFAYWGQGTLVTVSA
Chain of 1:1 8D6 Fab/IgE-Fc complex (light, as listed by the source, chain 2 of 2): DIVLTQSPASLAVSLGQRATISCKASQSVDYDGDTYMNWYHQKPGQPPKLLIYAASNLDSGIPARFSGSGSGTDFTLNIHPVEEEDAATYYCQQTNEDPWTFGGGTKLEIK

Chain of 2:1 8D6 Fab/IgE-Fc complex (heavy, as listed by the source, chain 1 of 2): as the sequence (heavy, as listed by the source, chain 1 of 2) above
Chain of 2:1 8D6 Fab/IgE-Fc complex (light, as listed by the source, chain 2 of 2): as the sequence (light, as listed by the source, chain 2 of 2) above

- pKd [1]: 5.77
- pKd [2]: 5.77
Substance: derCD23 (domain or fragment)
